assay: soluble on expression in E. coli; label from the status in PepcDB or PDB records

| Sequence | soluble on expression in E. coli |
| --- | --- |
| MAHHHHHHMAALKNKIHRIGKRKGATLKDVSAWRWIKTAARHFKQEGKIFVPNCTEIMKSSHGRERAPQNPDWYYIRCAAVLRAIYLRPGVGYGGLSKRFGNKKNYGSRPEHTVTSSTGPLHWACKSLTKLGLVEPGAQSGQRLTRKGHKFADSLAFQVQIRKFGAST | soluble |
| ELSENFKKLMKYPYRPCTCTRCIEEQRVSAWFDERFNRSMQPLLTAKNAHLEEDTYKWWLRLQREKQPNNLNDTIRELFQVVPGNVDPLLEKRLVSCRRCAVVGNSGNLKESYYGPQIDSHDFVLRMNKAPTEGFEADVGSKTTHHFVYPESFRELAQEVSMILVPFKTTDLEWVISATTTGRISHTYVPVPAKIKVKKEKILIYHPAFIKYVFDRWLQGHGRYPSTGILSVIFSLHICDEVDLYGFGADSKGNWHHYWENNPSAGAFRKTGVHDGDFESNVTTILASINKIRIFKGR | soluble |
| MKMNYHLSTSSYTTSMLSCTVLDDDIRYEKLSWKLDEAEMQGLIM | soluble |
| GMTQHITRMRREIDEIPEAVQRLLDHGAQDVARVAAVLRLRDPSFVATVARGSSDHVCTYLSYAAELLLGLPVASLGPSVASVYDARLRLDRALCLAVSQSGKSPDIVAMTRNAGRDGALCVALTNDAASPLAGVSAHTIDIHAGPELSVAATKTFVTSAVAGLMLLADWAEDDGLRAALGNLPETLAAASRIDWPEMRVAIGARPSLFTLGRGTSLAVSNEAALKFKETCQLHAESYSSAEVLHGPVSIVEEGFPVLGFAAGDAAEAPLAEIADQIAAKGATVFATTGRVTRARVLEHVRSGHALTDPLSLIVSFYSMVEAFASERGIDPDAPRHLNKVTETV | soluble |
| MGSDKIHHHHHHMKTRDRIVHASLELFNLNGEPGITTNHIAAHLGMSPGNLYYHFRNKEDIIRSIFDLYQQHLEKGFQPYENKQVDMALLMGYFDALFYTLWQFRFMYANLVIILGRDEELKQKYLGIQQQVLARSSNILQQLKKDKVLDIADDEITPLADTIRMIAGFWISNQLTYSGAANITKSSLYEGLLRVLMLFKAYSTSDSFETFKHLEQHYRTLALEDDQ | not soluble |
| ADNEEDVEAEEEYTELTDISGVGPSKAESLREAGFESVEDVRGADQSALADVSGIGNALAARIKADVGGLEVESETEAEVEEEGGEEAPDEDVETELQARGLTEKTPDLSDEDARLLTQRHRVGKPQFNRQDHHKKKRVSTSWRKPRGQLSKQRRGIKGKGDTVEAGFRSPTAVRGKHPSGFEEVRVHNVDDLEGVDGDTEAVRIASKVGARKRERIEEEAEDAGIRVLNPTYVEVEVSE | soluble |
| MSLTKYHDLKNKVIVIAGGIKNLGALTAKTFALESVNLVLHYHQAKDSDTANKLKDELEDQGAKVALYQSDLSNEEEVAKLFDFAEKEFGKVDIAINTVGKVLKKPIVETSEAEFDAMDTINNKVAYFFIKQAAKHMNPNGHIITIATSLLAAYTGFYSTYAGNKAPVEHYTRAASKELMKQQISVNAIAPGPMDTSFFYGQETKESTAFHKSQAMGNQLTKIEDIAPIIKFLTTDGWWINGQTIFANGGYTTREGHHHHHH | soluble |
| MSLNISTGLLIVESPTKAKTIAKMFSRPSVRIRNKVPVYETIIVDGNQIYVLDIVASKGHIVDLTLEDIGYYGIKVEDDGTIKPYYDLIKKCLDCNKIFSSASDKCPYCGSANLQSAQTTINLLRELALSVDKVFIASDPDTEGEKIAYDLASFLSPYNSNVYRVVYHEITKKAILEALRNPKKINTNLVMSQIVRRIEDRWIGFTLSNLLKTKFNGHNHGAGRVQTPVLGWIVNKTIKYKSAMGHVVYIDIAGYSIKKYFSEKRKVEEYINNLQVARIEKISEEKILLSPLPPFTTDTLLIEANMKYKLPANLVMKIAQDLFEAGLITYHRTDSTHISSVGIEIAKEYLQKQALIKEFVPRSWESSEEGAHEAIRPTRAIDVNELIQEIEENPYKYSIRFSKLHLLIYDLIFKRFIASQMSHAVGTKSRYLIKLGKDDNVDVELLSNAEGGFIKVYPVKVYNLPVGEIQPKVNITKGSSEQLLSYSDVISLMKSKGIGRPSTYAKTIENLMKHGYIVSSKRKSYLIATNRGISVYQFLSSKFYDLVSESTTSRLMTKLDDIALSKLNASTVLLEIFSEISTLVNPLKSEEGHHHHHH | soluble |
